Measured values as given in the supplement of paper PMC9233669.
Variants at the floor of the assay were thinned out.

Columns and labels:
biotinyl-Phe-oxazolone = assay: self-aminoacylation, catalytic enhancement (BFO) (fold over background); higher = more active; k-Seq, kA / k0A0; sequences stand for … in GGGAAUGGAUCCACAUCUACGAAUUC…UUCACUGCAGACUUGACGAAGCUG
Outline: (§1)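 The uncatalyzed rate is the low-activity peak of a bimodal Gaussian fit, and catalytic enhancement is median kA divided by it. The kA values came from pseudo-first-order fits, with 1000 bootstraps, of per-sequence fraction reacted measured by streptavidin capture, triplicate qPCR and Illumina sequencing. Mutagenized RNA pools with a 21-nt variable region (0.43 μM) were reacted with each biotinyl-aminoacyl-oxazolone at 2–1250 μM in 50 μL HEPES/NaCl/KCl/MgCl2/CaCl2 buffer with 5% acetonitrile, pH 6.9–7.0, for 90 minutes at room temperature.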

biotinyl-Trp-oxazolone = assay: self-aminoacylation, catalytic enhancement (BWO) (fold over background); higher = more active; k-Seq, kA / k0A0; sequences stand for … in GGGAAUGGAUCCACAUCUACGAAUUC…UUCACUGCAGACUUGACGAAGCUG
Outline: as §1

biotinyl-Ile-oxazolone = assay: self-aminoacylation, catalytic enhancement (BIO) (fold over background); higher = more active; k-Seq, kA / k0A0; sequences stand for … in GGGAAUGGAUCCACAUCUACGAAUUC…UUCACUGCAGACUUGACGAAGCUG
Outline: as §1

biotinyl-Met-oxazolone = assay: self-aminoacylation, catalytic enhancement (BMO) (fold over background); higher = more active; k-Seq, kA / k0A0; sequences stand for … in GGGAAUGGAUCCACAUCUACGAAUUC…UUCACUGCAGACUUGACGAAGCUG
Outline: as §1

biotinyl-Leu-oxazolone = assay: self-aminoacylation, catalytic enhancement (BLO) (fold over background); higher = more active; k-Seq, kA / k0A0; sequences stand for … in GGGAAUGGAUCCACAUCUACGAAUUC…UUCACUGCAGACUUGACGAAGCUG
Outline: as §1

biotinyl-Val-oxazolone = assay: self-aminoacylation, catalytic enhancement (BVO) (fold over background); higher = more active; k-Seq, kA / k0A0; sequences stand for … in GGGAAUGGAUCCACAUCUACGAAUUC…UUCACUGCAGACUUGACGAAGCUG
Outline: as §1

| Sequence | self-aminoacylation (biotinyl-Phe-oxazolone) | self-aminoacylation (biotinyl-Trp-oxazolone) | self-aminoacylation (biotinyl-Ile-oxazolone) | self-aminoacylation (biotinyl-Met-oxazolone) | self-aminoacylation (biotinyl-Leu-oxazolone) | self-aminoacylation (biotinyl-Val-oxazolone) |
| --- | --- | --- | --- | --- | --- | --- |
| CCACACAUCAAGCAAUCGGUG [Fam1B.1 aminoacylation ribozyme variant] | 31.6 | 5.14 | 3.27 | 4.98 | 6.65 | 3.26 |
| CCACACAUCAAGCACUCGGUC [Fam1B.1 aminoacylation ribozyme variant] | 0.805 | 0.94 | 0.935 | 1.02 | 0.724 | 1.18 |
| CCACACAUCUAGCAAUCGGUC [Fam1B.1 aminoacylation ribozyme variant] | 0.911 | 0.615 | 0.894 | 0.797 | 0.712 | 0.93 |
| CCACACCUCAACCAAUCGGUC [Fam1B.1 aminoacylation ribozyme variant] | 3.45 | 3.13 | 1.11 | 1.37 | 1.28 | 1.02 |
| CCACACCUCAAGCAAGCGGUC [Fam1B.1 aminoacylation ribozyme variant] | 1.27 | 1.32 | 1.34 | 1.02 | 0.921 | 1.21 |
| CCACACCUCAAGCAAUCGGUC [Fam1B.1 aminoacylation ribozyme variant] | 2.37 | 1.56 | 1.03 | 0.862 | 0.908 | 1.15 |
| CCACACCUCAAGCGAUCGGUC [Fam1B.1 aminoacylation ribozyme variant] | 1.09 | 1.5 | 1.31 | 1.33 | 1.69 | 1.73 |
| CCACACCUCCAGCAAUCGGUC [Fam1B.1 aminoacylation ribozyme variant] | 1.64 | 1.19 | 1.69 | 1.27 | 1.15 | 1.4 |
| CCACACGUCAAGAAAUCGGUC [Fam1B.1 aminoacylation ribozyme variant] | 1.01 | 0.951 | 1.28 | 1.17 | 1.28 | 1.44 |
| CCACACGUCAAGCAAUCUGUC [Fam1B.1 aminoacylation ribozyme variant] | 0.326 | 0.24 | 0.54 | 0.472 | 0.422 | 0.543 |
| CCACACGUCAAGCACUCGGUC [Fam1B.1 aminoacylation ribozyme variant] | 2.16 | 1.1 | 1.17 | 1.13 | 1.23 | 2.17 |
| CCACACGUCUAGCAAUCGGUC [Fam1B.1 aminoacylation ribozyme variant] | 0.972 | 0.768 | 1.01 | 0.9 | 0.937 | 1.15 |
| CCACACUACAAGCAAUGGGUC [Fam1B.1 aminoacylation ribozyme variant] | 0.762 | 0.735 | 0.72 | 0.778 | 0.511 | 0.842 |
| CCACACUAGAAGCAAUCGGUC [Fam1B.1 aminoacylation ribozyme variant] | 0.713 | 0.873 | 0.809 | 0.747 | 0.954 | 0.961 |
| CCACACUCCAAGCAAUCGCUC [Fam1B.1 aminoacylation ribozyme variant] | 0.753 | 2.47 | 1.92 | 1.29 | 1.38 | 2.56 |
| CCACACUCCAAGCAAUCGGAC [Fam1B.1 aminoacylation ribozyme variant] | 0.729 | 0.574 | 1.09 | 0.74 | 1.37 | 0.937 |
| CCACACUCCAAGCAAUCGGUG [Fam1B.1 aminoacylation ribozyme variant] | 59.9 | 6.72 | 4.43 | 7.47 | 9.97 | 4.45 |
| CCACACUCCACGCAAUCGGUC [Fam1B.1 aminoacylation ribozyme variant] | 0.759 | 1.18 | 1.51 | 1 | 1.2 | 1.62 |
| CCACACUCCCAGCAAUCGGUC [Fam1B.1 aminoacylation ribozyme variant] | 0.634 | 1.02 | 1.65 | 1.41 | 1.6 | 1.59 |
| CCACACUCUAAGCAAUCGGUC [Fam1B.1 aminoacylation ribozyme variant] | 1.04 | 0.903 | 0.985 | 0.69 | 0.683 | 1.06 |
| CCACACUGCAAGAAAUCGGUC [Fam1B.1 aminoacylation ribozyme variant] | 1.29 | 1.51 | 1.51 | 1.12 | 1.51 | 1.72 |
| CCACACUGCAAGCAAUAGGUC [Fam1B.1 aminoacylation ribozyme variant] | 1.15 | 0.601 | 0.905 | 0.777 | 0.915 | 0.907 |
| CCACACUGCAAGCAAUCGCUC [Fam1B.1 aminoacylation ribozyme variant] | 16 | 1.78 | 2.73 | 2.1 | 2.4 | 2.35 |
| CCACACUGCAAGCAAUCGGUA [Fam1B.1 aminoacylation ribozyme variant] | 0.894 | 2.33 | 2.19 | 2.16 | 2.11 | 2.25 |
| CCACACUUAAAGCAAUCGGCC [Fam1B.1 aminoacylation ribozyme variant] | 7.34 | 1.7 | 1.72 | 1.71 | 2.15 | 1.97 |
| CCACACUUAAAGCAUUCGGUC [Fam1B.1 aminoacylation ribozyme variant] | 1.03 | 1.15 | 1.63 | 1.17 | 1.29 | 1.58 |

| Sequence | self-aminoacylation (biotinyl-Phe-oxazolone) | self-aminoacylation (biotinyl-Trp-oxazolone) | self-aminoacylation (biotinyl-Ile-oxazolone) | self-aminoacylation (biotinyl-Met-oxazolone) | self-aminoacylation (biotinyl-Leu-oxazolone) | self-aminoacylation (biotinyl-Val-oxazolone) |
| --- | --- | --- | --- | --- | --- | --- |
| CCACACUUAAAGCGAUCGGUC [Fam1B.1 aminoacylation ribozyme variant] | 0.793 | 0.934 | 1.23 | 0.963 | 1 | 1.18 |
| CCACACUUAAAUCAAUCGGUC [Fam1B.1 aminoacylation ribozyme variant] | 0.699 | 0.868 | 0.829 | 0.589 | 0.787 | 0.914 |
| CCACACUUAAGGCAAUCGGUC [Fam1B.1 aminoacylation ribozyme variant] | 0.764 | 1.25 | 1.15 | 0.983 | 1.03 | 0.981 |
| CCACACUUAAUGCAAUCGGUC [Fam1B.1 aminoacylation ribozyme variant] | 0.949 | 0.642 | 0.855 | 0.752 | 0.693 | 0.763 |
| CCACACUUAUAGCAAUCGGUC [Fam1B.1 aminoacylation ribozyme variant] | 0.926 | 0.886 | 1 | 0.667 | 0.722 | 0.927 |
| CCACACUUCAACCAAUCAGUC [Fam1B.1 aminoacylation ribozyme variant] | 28.8 | 9.75 | 0.978 | 0.804 | 1.04 | 1.04 |
| CCACACUUCAACCAAUCUGUC [Fam1B.1 aminoacylation ribozyme variant] | 0.77 | 0.369 | 0.426 | 0.419 | 0.377 | 0.607 |
| CCACACUUCAAGAAAUCGCUC [Fam1B.1 aminoacylation ribozyme variant] | 0.492 | 0.881 | 1.13 | 1.14 | 0.886 | 1.05 |
| CCACACUUCAAGAAAUCGGUG [Fam1B.1 aminoacylation ribozyme variant] | 55.3 | 8.37 | 4.82 | 6.53 | 10.6 | 3.53 |
| CCACACUUCAAGCAAACGGUG [Fam1B.1 aminoacylation ribozyme variant] | 10.7 | 4.31 | 3.12 | 3.91 | 5.1 | 3.33 |
| CCACACUUCAAGCAACCGGCC [Fam1B.1 aminoacylation ribozyme variant] | 17.4 | 5.33 | 3.66 | 4.29 | 2.77 | 3.58 |
| CCACACUUCAAGCAAUAGGCC [Fam1B.1 aminoacylation ribozyme variant] | 0.88 | 0.71 | 0.939 | 0.9 | 1.05 | 1.04 |
| CCACACUUCAAGCAAUCAGUG [Fam1B.1 aminoacylation ribozyme variant] | 6.8 | 2.99 | 3 | 3.58 | 4.36 | 2.83 |
| CCACACUUCAAGCAAUCCUUC [Fam1B.1 aminoacylation ribozyme variant] | 1.19 | 0.533 | 0.89 | 0.649 | 0.44 | 0.899 |
| CCACACUUCAAGCAAUCGACC [Fam1B.1 aminoacylation ribozyme variant] | 1.25 | 0.447 | 0.623 | 0.518 | 0.399 | 0.751 |
| CCACACUUCAAGCAAUCGCAC [Fam1B.1 aminoacylation ribozyme variant] | 0.785 | 0.672 | 0.76 | 0.814 | 0.465 | 0.889 |
| CCACACUUCAAGCAAUCGGAU [Fam1B.1 aminoacylation ribozyme variant] | 0.817 | 1.63 | 1.03 | 0.886 | 0.789 | 1.38 |
| CCACACUUCAAGCAAUCUGCC [Fam1B.1 aminoacylation ribozyme variant] | 0.603 | 0.628 | 0.806 | 1.3 | 0.787 | 1.05 |
| CCACACUUCAAGCAAUGGGUU [Fam1B.1 aminoacylation ribozyme variant] | 0.91 | 1.46 | 1.22 | 1.14 | 1.39 | 1.71 |
| CCACACUUCAAGCACCCGGUC [Fam1B.1 aminoacylation ribozyme variant] | 0.709 | 2.07 | 1.55 | 1.74 | 1.64 | 1.75 |
| CCACACUUCAAGCACUCGCUC [Fam1B.1 aminoacylation ribozyme variant] | 2.93 | 1.51 | 2.02 | 2.25 | 2.39 | 2.07 |
| CCACACUUCAAGCAGACGGUC [Fam1B.1 aminoacylation ribozyme variant] | 0.719 | 0.539 | 0.686 | 0.607 | 0.605 | 0.57 |
| CCACACUUCAAGCAUUAGGUC [Fam1B.1 aminoacylation ribozyme variant] | 0.818 | 0.516 | 0.501 | 0.399 | 0.504 | 0.645 |
| CCACACUUCAAGCAUUCGGCC [Fam1B.1 aminoacylation ribozyme variant] | 0.749 | 1.69 | 1.84 | 1.25 | 1.63 | 1.99 |
| CCACACUUCAAGCAUUCGUUC [Fam1B.1 aminoacylation ribozyme variant] | 0.811 | 0.688 | 0.852 | 0.685 | 0.653 | 1.02 |
